This note sets out measurements from US20240317816A1, “PEPTIDES FOR IMMUNOTHERAPY” (Genevive, Inc., priority 2021, published 2024).

What all share (type): cell-based
One experiment has as its target T1, CCR7 (Homo sapiens, UniProt P32248).
T1 construct: expressed in transfected cells
T1 sequence (P32248 25-378): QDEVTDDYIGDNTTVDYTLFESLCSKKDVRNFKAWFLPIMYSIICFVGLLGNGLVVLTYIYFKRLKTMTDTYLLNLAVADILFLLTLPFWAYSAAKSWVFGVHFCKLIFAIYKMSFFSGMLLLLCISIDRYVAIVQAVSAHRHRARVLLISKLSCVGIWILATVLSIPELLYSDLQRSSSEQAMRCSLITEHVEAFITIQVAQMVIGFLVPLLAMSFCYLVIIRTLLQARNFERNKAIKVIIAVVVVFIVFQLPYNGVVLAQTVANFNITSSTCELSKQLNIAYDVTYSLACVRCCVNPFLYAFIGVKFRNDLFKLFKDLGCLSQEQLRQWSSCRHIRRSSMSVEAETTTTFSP
Briefly: gpcrMAX PathHunter β-Arrestin Assay. From the text: (§1) The PathHunter® β-Arrestin Assay monitored activation of a panel of 168 G-protein coupled receptors (GPCRs) with […] activation of the GPCR in agonist and antagonist mode.
(§2) where the test sample is the peptide, the vehicle control is DMSO (0% activity), and the control ligand is control compound (100% activity).
(§3) Peptides SG-3-00802 and SG-3-05021 were identified as an agonist, an antagonist, a PAM (Positive Allosteric Modulator), or an inverse-agonist. Agonist, antagonist, PAM, and inverse-agonist were identified according to the guidelines in Table 8. The basal activity/noise is a % activity of −20% to 20% for both agonist and antagonist modes. A PAM (Positive Allosteric Modulator) binds to a receptor, at a different site than the agonist, to change the receptor's response to the agonist. An inverse-Agonist is a binding partner with agonistic shutting down of basal activity in the cell. An antagonist antagonizes the activity of a particular binding partner.

In the next experiment the target is T2, CXCR4 (Homo sapiens, UniProt P61073).
T2 construct: host or cells: U2OS
T2 sequence (P61073 whole entry): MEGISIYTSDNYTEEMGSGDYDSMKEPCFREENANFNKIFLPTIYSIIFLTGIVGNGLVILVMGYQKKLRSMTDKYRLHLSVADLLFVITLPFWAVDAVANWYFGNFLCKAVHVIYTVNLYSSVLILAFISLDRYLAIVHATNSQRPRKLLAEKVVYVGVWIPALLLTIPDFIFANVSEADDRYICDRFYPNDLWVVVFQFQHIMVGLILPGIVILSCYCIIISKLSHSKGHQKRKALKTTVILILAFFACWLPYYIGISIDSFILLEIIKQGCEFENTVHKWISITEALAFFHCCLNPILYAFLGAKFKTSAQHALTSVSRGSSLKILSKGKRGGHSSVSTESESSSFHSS
Briefly: gpcrMAX PathHunter β-Arrestin Assay.
Source text: as §1, §2, §3

Experiment [1] concerns the target T3, CXCR3 (Homo sapiens, UniProt P49682).
T3 sequence (P49682 1-368): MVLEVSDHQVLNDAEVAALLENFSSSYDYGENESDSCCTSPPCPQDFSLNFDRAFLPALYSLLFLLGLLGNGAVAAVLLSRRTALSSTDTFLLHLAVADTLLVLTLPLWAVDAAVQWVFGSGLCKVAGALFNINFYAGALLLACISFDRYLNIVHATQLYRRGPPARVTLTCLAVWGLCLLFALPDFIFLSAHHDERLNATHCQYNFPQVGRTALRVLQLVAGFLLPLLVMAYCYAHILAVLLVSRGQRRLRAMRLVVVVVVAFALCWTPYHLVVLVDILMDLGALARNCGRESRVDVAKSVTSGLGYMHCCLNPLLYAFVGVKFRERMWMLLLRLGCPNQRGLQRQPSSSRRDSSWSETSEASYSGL
Briefly: gpcrMAX PathHunter β-Arrestin Assay.
Source text: as §1, §2, §3

Experiment [2] has as its target T3, CXCR3. Briefly: SelectScreen agonist/antagonist assay, CXCR3-bla U2OS cells. Also noted: TEV protease site; Gal4-VP16 transcription factor ('Ga14-VP16' [sic]); Tango cell line; host or cells: Tango GPCR-bla U2OS. To be noted: for SelectScreen Antagonist Mode: control agonist I-TAC at EC80. The procedure:
In agonist assays, chemokine receptor expressing U2OS cells are thawed and resuspended in Assay Media (DMEM, 1% dialyzed FBS, 25 mM HEPES pH 7.3, 0.1 mM NEAA, 100 U/mL/100 μg/mL Pen/Strep) to a concentration of 312,500 cells/mL. 4 μL of a 10× serial dilution of I-TAC (control agonist starting concentration, 500 nM) or compounds are added to appropriate wells of a 384-well TC-Treated assay plate. 32 μL of cell suspension (10,000 cells) is added to each well. 4 μL of Assay Media is added to all wells to bring the final assay volume to 40 μL. The plate is incubated for 16-24 hours at 37° C./5% CO2 in a humidified incubator. 8 μL of 1 μM Substrate+Solution D Loading Solution is added to each well and the plate is incubated for 2 hours at room temperature. The plate is read on a fluorescence plate reader.
In antagonist assays, CXCR3-bla U2OS cells were thawed and prepared as described above for the Agonist assay. 4 μL of 10× compounds or assay media was added to appropriate wells of a TC-Treated assay plate. 32 μL of cell suspension was added to the wells and pre-incubated at 37° C./5% CO2 in a humidified incubator with compounds and control antagonist titration for 30 minutes. 4 μL of 10× control agonist I-TAC at the pre-determined EC80 concentration is added to wells containing the control antagonist or compounds. The plate is incubated for 16-24 hours at 37° C./5% CO2 in a humidified incubator. 8 μL of 1 μM Substrate+Solution D Loading Solution is added to each well and the plate is incubated for 2 hours at room temperature. The plate is read on a fluorescence plate reader.
(§4) Tango™ CXCR3-bla U2OS cells contain the human chemokine (C-X-C motif) receptor 3 linked to a TEV protease site and a Ga14-VP16 transcription factor stably integrated into the Tango™ GPCR-bla U2OS cell line. This parental cell line stably expresses a beta-arrestin/TEV protease fusion protein and the beta-lactamase reporter gene under the control of a UAS response element. The Tango™ CXCR3-bla U2OS cells have been functionally validated for a response to I-TAC (CXCL11).

Experiment [3] addresses T3, CXCR3. In words: Positive allosteric modulator assay method 2 (PAM2), CXCR3-bla U2OS. Details: TEV protease site; Gal4-VP16 transcription factor ('Ga14-VP16' [sic]); Tango cell line; host or cells: Tango GPCR-bla U2OS. To be noted: varying CXCL11, fixed peptide concentration.
Source text: as §4
Positive allosteric modulation was confirmed with an additional test method using a dose response setting for CXCL11. In positive allosteric modulator assay method 2 (PAM2), cells were diluted in Assay Media to an appropriate cell density, and were added to the assay plate. CXCR3-bla U2OS were stimulated with varying concentrations of CXCL11 ligand and a pre-determined fixed concentration of either SG-3-00802 or SG-3-06683 and incubated for 30 minutes. Ligand (CXCL9, CXCL10, or CXCL11) was added at increasing concentrations to wells containing the test compound.

In the case of “LGKTDWIEKYFKVKKEKIDKMQRFLQG (peptide for immunotherapy; SG-3-05021)”, in the experiment with CCR7, the “gpcrMAX Agonist Mode (% Agonist Activity)” value turned out to be 0% and the “gpcrMAX Antagonist Mode (% Antagonist Activity)” value is −18%. Also, in the experiment with CXCR4, the “gpcrMAX Agonist Mode (% Agonist Activity)” value amounted to 1% and the “gpcrMAX Antagonist Mode (% Antagonist Activity)” value is 10%. In addition, in the experiment with CXCR3 [1], the “gpcrMAX Agonist Mode (% Agonist Activity)” value is on record as −4% and the “gpcrMAX Antagonist Mode (% Antagonist Activity)” value is given as −20%. For the same sequence, in the experiment with CXCR3 [2], the “SelectScreen Agonist Mode” value is “no agonistic activity and No”; the “SelectScreen Antagonist Mode” value was “reverse antagonistic activity (sensitization) and PAM”.

For “MKVRPSVKPMCEKCKIIRRKGRVMVICENPKHKQRQG [SG-3-00802]”, the “activity of CXCL11 on the CXCR3 receptor (PAM2)” value with CXCR3 [3] is given as “enhanced the activity of the endogenous ligand CXCL11”. Also, in the experiment with CCR7, the Interpretation result is “No”, the “gpcrMAX Agonist Mode (% Agonist Activity)” value is on record as 0% and the “gpcrMAX Antagonist Mode (% Antagonist Activity)” value was 0%. In the experiment with CXCR4, the “gpcrMAX Agonist Mode (% Agonist Activity)” value is recorded as −14% and the “gpcrMAX Antagonist Mode (% Antagonist Activity)” value is 99%. In the experiment with CXCR3 [1], the “gpcrMAX Agonist Mode (% Agonist Activity)” value is −4% and the “gpcrMAX Antagonist Mode (% Antagonist Activity)” value is −32%. Moreover, in the experiment with CXCR3 [2], the “SelectScreen Agonist Mode” value is “weak agonistic activity and No”; the “SelectScreen Antagonist Mode” value was “potent reverse antagonistic activity (sensitization) and PAM”.
